Results on 31 molecules are retold here after article PMC10786891, “Massively parallel profiling of RNA-targeting CRISPR-Cas13d”.

Changes are numbered by the printed parent chain. In names and notes the source's numbering stands.

As a reminder, the Kd is the concentration at which binding is half-saturated. A lower Kd goes with higher affinity.

First the molecules themselves.
B1: target 1 insU 3' of 21,insC 3' of 8 (mixed)
RNA 1: CACCCGUGCAAAAAUGCAGGGGUCUAAAACUGAGCGGAUAACCUCUCUAUGG
RNA 2: GGGAAUGGAUCCACAUCUACGAAUUCGUACCUAUAGAGAGGUUAUCCCGCUCACCGAGAUCGGAAGAGCACACGU
B2: target 1 insA 3' of 17,insU 3' of 15 (mixed)
RNA 1: B1 RNA 1
RNA 2: GGGAAUGGAUCCACAUCUACGAAUUCGUACCAUAGAAGUAGGUUAUCCGCUCACCGAGAUCGGAAGAGCACACGU
B3: target 1 insA 3' of 13,insG 3' of 4 (mixed)
RNA 1: B1 RNA 1
RNA 2: GGGAAUGGAUCCACAUCUACGAAUUCGUACCAUAGAGAGAGUUAUCCGCGUCACCGAGAUCGGAAGAGCACACGU
B4: target 1 insA 3' of 17,insG 3' of 6 (mixed)
RNA 1: B1 RNA 1
RNA 2: B3 RNA 2 with G37A, A38G, G39A, A40G, C49G, G50C
B5: target 1 insA 3' of 17,insC 3' of 8 (mixed)
RNA 1: B1 RNA 1
RNA 2: B1 RNA 2 with U32A, A33U, U34A, A35G, G36A
B6: target 1 A18G,U19A (mixed)
RNA 1: B1 RNA 1
RNA 2: GGGAAUGGAUCCACAUCUACGAAUUCGUACCAAGGAGAGGUUAUCCGCUCACCGAGAUCGGAAGAGCACACGU
B7: target 1 A9U,G17U (mixed)
RNA 1: B1 RNA 1
RNA 2: B6 RNA 2 with A33U, G34A, G35U, A43U
B8: target 1 A1C,U19G (mixed)
RNA 1: B1 RNA 1
RNA 2: B6 RNA 2 with A33G, G34A, A51C
B9: target 1 insU 3' of 14,insG 3' of 14 (mixed)
RNA 1: B1 RNA 1
RNA 2: B2 RNA 2 with A37G, G38A, A40G
B10: target 1 insG 3' of 8,insC 3' of 8 (mixed)
RNA 1: B1 RNA 1
RNA 2: B3 RNA 2 with A40G, G41U, U43A, A44U, U45G, G48C, C49G, G50C
B11: target 1 insU 3' of 7,insG 3' of 2 (mixed)
RNA 1: B1 RNA 1
RNA 2: B3 RNA 2 with A40G, G41U, U43A, A44U, U45C, C46U, G50U, U51C, C52G
B12: target 1 insC 3' of 18,insA 3' of 11 (mixed)
RNA 1: B1 RNA 1
RNA 2: B2 RNA 2 with G35C, A36G, U39A, A40G, G42U, U43A
B13: target 1 insC 3' of 20,insG 3' of 9 (mixed)
RNA 1: B1 RNA 1
RNA 2: B1 RNA 2 with U32A, A33C, U45G, C46U
B14: target 1 U19G (mixed)
RNA 1: B1 RNA 1
RNA 2: B6 RNA 2 with A33G, G34A
B15: target 1 A1G,C2A (mixed)
RNA 1: B1 RNA 1
RNA 2: B6 RNA 2 with A33U, G34A, C50A, A51G
B16: target 1 U8A,A9G (mixed)
RNA 1: B1 RNA 1
RNA 2: B6 RNA 2 with A33U, G34A, A43G, U44A
B17: target 1 insC 3' of 5,insC 3' of 1 (mixed)
RNA 1: B1 RNA 1
RNA 2: GGGAAUGGAUCCACAUCUACGAAUUCGUACCAUAGAGAGGUUAUCCGCCUCACCCGAGAUCGGAAGAGCACACGU
B18: target 1 insC 3' of 20,insU 3' of 15 (mixed)
RNA 1: B1 RNA 1
RNA 2: B2 RNA 2 with U33C, A34U, G35A, A36G
B19: target 1 insC 3' of 12,insC 3' of 5 (mixed)
RNA 1: B1 RNA 1
RNA 2: B3 RNA 2 with A40G, G41C, G50C
B20: target 1 insU 3' of 4,insU 3' of 2 (mixed)
RNA 1: B1 RNA 1
RNA 2: B17 RNA 2 with C49U, A52U, C53A
B21: target 1 C4A,U10A (mixed)
RNA 1: B1 RNA 1
RNA 2: B6 RNA 2 with A33U, G34A, U42A, C48A
B22: target 1 C6U,G15A (mixed)
RNA 1: B1 RNA 1
RNA 2: B6 RNA 2 with A33U, G34A, G37A, C46U
B23: target 1 insC 3' of 10 (mixed)
RNA 1: B1 RNA 1
RNA 2: GGGAAUGGAUCCACAUCUACGAAUUCGUACCAUAGAGAGGUUCAUCCGCUCACCGAGAUCGGAAGAGCACACGU
B24: target 1 insU 3' of 17,insG 3' of 14 (mixed)
RNA 1: B1 RNA 1
RNA 2: B2 RNA 2 with A36U, U39A, A40G
B25: target 1 G5C,C7A (mixed)
RNA 1: B1 RNA 1
RNA 2: B6 RNA 2 with A33U, G34A, C45A, G47C
B26: target 1 insA 3' of 22,insG 3' of 3 (mixed)
RNA 1: B1 RNA 1
RNA 2: B1 RNA 2 with C31A, U32C, C48G, G49C, C50U, U51G
B27: target 1 insC 3' of 5,insU 3' of 1 (mixed)
RNA 1: B1 RNA 1
RNA 2: B17 RNA 2 with C53U
B28: target 1 C7G,C22U (mixed)
RNA 1: B1 RNA 1
RNA 2: B6 RNA 2 with C30U, A33U, G34A, C45G
B29: target 1 C2A,C7U (mixed)
RNA 1: B1 RNA 1
RNA 2: B6 RNA 2 with A33U, G34A, C45U, C50A
B30: target 1 insG 3' of 16,insA 3' of 7 (mixed)
RNA 1: B1 RNA 1
RNA 2: B3 RNA 2 with A38G, G39A, A40G, C47A, G48C, C49G, G50C
B31: target 1 insC 3' of 5,insG 3' of 1 (mixed)
RNA 1: B1 RNA 1
RNA 2: B17 RNA 2 with C53G

The data set addresses T1, EsCas13d, nuclease-dead (Eubacterium siraeum, UniProt B0MS50, R295A;H300A;R849A;H854A).
T1 sequence: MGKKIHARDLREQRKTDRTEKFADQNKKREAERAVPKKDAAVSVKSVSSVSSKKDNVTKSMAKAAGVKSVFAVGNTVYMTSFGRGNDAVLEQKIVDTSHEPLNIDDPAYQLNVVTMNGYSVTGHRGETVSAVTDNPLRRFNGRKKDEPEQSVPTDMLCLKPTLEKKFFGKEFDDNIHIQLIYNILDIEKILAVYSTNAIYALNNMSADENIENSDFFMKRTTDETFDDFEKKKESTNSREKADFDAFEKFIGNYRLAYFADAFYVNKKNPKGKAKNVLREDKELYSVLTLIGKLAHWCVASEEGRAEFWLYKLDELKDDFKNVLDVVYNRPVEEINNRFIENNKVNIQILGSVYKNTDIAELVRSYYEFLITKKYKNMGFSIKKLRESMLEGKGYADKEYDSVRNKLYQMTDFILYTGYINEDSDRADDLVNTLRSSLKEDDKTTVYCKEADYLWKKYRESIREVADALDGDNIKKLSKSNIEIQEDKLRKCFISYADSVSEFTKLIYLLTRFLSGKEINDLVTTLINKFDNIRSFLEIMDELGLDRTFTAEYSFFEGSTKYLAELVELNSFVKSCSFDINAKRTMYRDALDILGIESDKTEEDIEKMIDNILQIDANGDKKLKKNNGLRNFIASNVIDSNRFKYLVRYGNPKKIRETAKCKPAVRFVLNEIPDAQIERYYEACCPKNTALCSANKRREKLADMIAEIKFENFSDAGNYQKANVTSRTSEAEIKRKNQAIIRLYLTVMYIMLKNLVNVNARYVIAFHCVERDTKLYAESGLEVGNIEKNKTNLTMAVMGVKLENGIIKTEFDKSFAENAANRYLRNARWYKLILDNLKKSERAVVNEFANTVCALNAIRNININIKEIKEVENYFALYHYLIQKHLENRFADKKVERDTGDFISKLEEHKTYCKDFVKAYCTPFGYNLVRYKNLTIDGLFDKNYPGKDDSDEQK
The data set is described as follows: crRNA (strand 1, pre-loaded); Mg2+; 40 mM Tris-HCl pH 7.5, 150 mM NaCl, 6 mM MgCl2, 1 mM DTT, 0.1% Tween-20, 0.2 mg/ml BSA; 25 C; 10 min per concentration, then washed. The conditions noted are these: tags: His6-TwinStrep-SUMO cleaved; N-terminal SNAP kept (SNAP-Surface 488); label: 3' end held by stalled T7 RNA polymerase.
In turn, B1 gave an equilibrium dissociation constant (Kd) of 71 ± 15 nM.
For the molecule B2, the Kd was 12 ± 4 nM.
Regarding B3, the affinity, expressed as Kd, was 3.04 ± 0.19 nM.
With B4 the figure was 19.4 ± 0.8 nM; with B5, 18.6 ± 1.3 nM; with B6, 98 ± 25 nM.
In turn, B7 registered a Kd of 30 ± 4 nM.
With B8 the figure was roughly 80 nM.
In the case of B9, the Kd is 44 ± 10 nM.
With B10 the figure was 12.9 ± 0.5 nM; with B11, 15.3 ± 1.2 nM.
As to B12, the Kd was 74 ± 9 nM.
As for B13, the figure is 10.2 ± 0.8 nM; as for B14, 48 ± 5 nM.
With B15 the figure was 5.2 ± 0.32 nM.
As for B16, the figure is 19.3 ± 1 nM; as for B17, 19.6 ± 3.4 nM; as for B18, 10 ± 0.7 nM.
Molecule B19 returned a Kd of 13.4 ± 0.7 nM.
With B20 the figure was 9.5 ± 0.4 nM.
Regarding B21, binding was put at a Kd of 5.3 ± 0.4 nM.
As for B22, the figure is 11.9 ± 0.5 nM.
As for B23, the figure is 15.5 ± 0.9 nM; as for B24, 23 ± 5 nM.
Consider B25, for which the Kd turned out to be 21.2 ± 1.4 nM.
With B26 the figure was 10.8 ± 0.8 nM; with B27, 9.61 ± 0.26 nM; with B28, 13.7 ± 0.7 nM.
As for B29, the figure is 5.2 ± 0.4 nM; as for B30, 14.5 ± 0.9 nM.
As for B31, binding was characterised by a dissociation constant (Kd) of 8.4 ± 0.6 nM.
